Measured values from PMC5290283.

Biological target: C-terminal region of APC (APC-CT), FLAG-tagged
Assay: AlphaScreen
Settings: Donor: Gag MA-GST-biotin; acceptor: APC(CT)-FLAG; n=3; parent: est. 2.1; read off a plot

Row | Substance | response
1 | Fyn(10)WT (wild-type protein of the AlphaScreen with MA HBR mutants) 6A2T: HBR segment […] -> […] (K>A; K>A; R>A; R>A; K>A; K>A; K>T; K>T, in segment order) | 0.25 10^3 RLU
2 | Fyn(10)WT (wild-type protein of the AlphaScreen with MA HBR mutants) RKswitch: HBR segment […] -> […] (K>R; K>R; R>K; R>K; K>R; K>R; K>R; K>R, in segment order) | 2.3 10^3 RLU
